Binding compared to wild type data for 2 substances are collected here from article PMC9107400.

The target of one assay is AR65Q (human) (UniProt P10275). Briefly: co-IP; cell-free ('in vitro pull-down'): FLAG-SMAD4 (TNT wheat germ) and GST-AR constructs (E. coli S30) in vitro translated, equal amounts mixed overnight at 4 °C, captured with anti-GST antibody on protein G Dynabeads, Western blot with anti-FLAG.
In assay [1] the target is N-terminal FLAG-tagged SMAD4 (UniProt Q13485). Briefly: co-IP; HEK293T cells transfected with FLAG-tagged SMAD4 (or its deletion constructs) and AR constructs, treated with DHT 10 nM and BMP7 50 ng/mL for 12 h; nuclear extracts incubated overnight at 4 °C with anti-FLAG or anti-AR antibody (IgG isotype as control) on protein G Dynabeads; Western blot for AR and SMAD4.

As to “FLAG-tagged SMAD4, in vitro translated (from UniProt Q13485 1-552) (natural protein)”, the binding compared to wild type in the assay with AR65Q (human) turned out to be 70%.
“AR100Q (from UniProt P10275 1-920) (natural protein)” had a binding compared to wild type in assay [1] of 50%.
